Assay [1] has as its target T1, TRPV6 (endogenous, in human cancer cell lines, tumour tissue and plasma) (human, UniProt Q9H1D0 1-765).
T1 construct: whole, on cells; also called Transient Receptor Potential Vanilloid 6; TRPV6 channel
T1 sequence (looked up): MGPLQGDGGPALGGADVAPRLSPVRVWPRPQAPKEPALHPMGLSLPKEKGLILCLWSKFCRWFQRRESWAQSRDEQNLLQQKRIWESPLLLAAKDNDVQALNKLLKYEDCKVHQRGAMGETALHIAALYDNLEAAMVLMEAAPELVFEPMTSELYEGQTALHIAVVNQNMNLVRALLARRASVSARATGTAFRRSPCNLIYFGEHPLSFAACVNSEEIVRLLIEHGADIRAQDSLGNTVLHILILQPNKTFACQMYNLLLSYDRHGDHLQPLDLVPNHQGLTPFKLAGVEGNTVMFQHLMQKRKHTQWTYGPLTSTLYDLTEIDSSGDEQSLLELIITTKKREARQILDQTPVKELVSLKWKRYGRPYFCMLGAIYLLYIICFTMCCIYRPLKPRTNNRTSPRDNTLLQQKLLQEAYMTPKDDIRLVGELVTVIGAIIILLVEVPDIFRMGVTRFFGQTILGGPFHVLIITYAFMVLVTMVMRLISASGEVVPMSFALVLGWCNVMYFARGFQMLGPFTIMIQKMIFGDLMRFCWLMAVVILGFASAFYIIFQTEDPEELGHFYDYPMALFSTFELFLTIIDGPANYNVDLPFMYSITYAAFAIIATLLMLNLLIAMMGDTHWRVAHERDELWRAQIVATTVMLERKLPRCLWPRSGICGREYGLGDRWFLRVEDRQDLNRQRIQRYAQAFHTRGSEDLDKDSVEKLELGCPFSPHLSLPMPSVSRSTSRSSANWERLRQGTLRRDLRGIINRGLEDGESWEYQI
The experiment in a line: LNCaP model; method not described.

Assay [2] addresses T1, TRPV6 (endogenous, in human cancer cell …). The experiment in a line: fluorescence microscopy, SKOV-3 cells, not transfected (FIG. 9 A1-A3).

Results on three molecules are retold here after US20220175977A1 (SORICIMED BIOPHARMA, published 2022).

Where no end group is shown, it is not given here.

For orientation: Kd means the equilibrium constant for the complex coming apart. Low values mean higher affinity, high ones lower affinity. KEFLHPSKVDLPR [SorC13] showed a Kd in assay [1] of 100 nM. That is a sub-micromolar value.

In assay [1], EGKLSSNDTEGGLCKEFLHPSKVDLPR [SorC27] displayed a Kd of 140 nM.

B1: SorC27-cy5.5 (peptide)
peptide: EGKLSSNDTEGGLC(Cy5.5)KEFLHPSKVDLPR
notes: also called SorC27-Cy5.5 compound; fluorescently labeled SorC27
On to B1, for which the binding result in assay [2] is listed as “binds”.
